Assay results taken from article PMC4996508.

Biological target: Neurospora crassa importin-α (residues 75-529) (Neurospora crassa)
Assay: ITC; importin-α (50 μM) in the cell, PAC-3 NLS peptide (500 μM) titrated from the syringe; 20°C; 20 mM Tris-HCl pH 8.0, 100 mM NaCl; single binding site model

Neurospora crassa importin-α (residues 75-529) (Neurospora crassa), sequence (G5EB89 other isoform, or with tags, fused parts or gaps): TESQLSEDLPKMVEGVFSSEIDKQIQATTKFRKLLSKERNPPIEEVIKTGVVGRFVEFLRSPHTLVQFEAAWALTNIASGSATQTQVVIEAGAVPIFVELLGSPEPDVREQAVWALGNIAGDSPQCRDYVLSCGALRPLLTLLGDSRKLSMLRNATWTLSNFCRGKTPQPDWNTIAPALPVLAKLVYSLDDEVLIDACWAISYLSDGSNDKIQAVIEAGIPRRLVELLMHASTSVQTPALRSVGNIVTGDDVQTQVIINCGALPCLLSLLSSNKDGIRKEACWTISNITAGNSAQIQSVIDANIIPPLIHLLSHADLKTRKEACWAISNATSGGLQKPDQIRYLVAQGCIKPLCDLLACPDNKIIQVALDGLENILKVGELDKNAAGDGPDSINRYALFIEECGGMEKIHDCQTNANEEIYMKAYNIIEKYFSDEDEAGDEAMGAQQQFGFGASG
PAC-3 NLS peptide, sequence (peptide): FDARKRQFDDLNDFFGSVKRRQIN

Kd: 390 nM
dH: -12.1 kcal/mol
stoichiometry N: 1
Substance: PAC-3 NLS peptide
